Measurements as given in patent CN104774268A.

Key:
[1] = molecular target: CD3 on CD3-positive Jurkat cells (human); experiment: flow cytometry on Jurkat cells, MFI titration fitted in GraphPad Prism
[2] = molecular target: EGFR on EGFR-positive cells (HT29; HCT116; MDA-MB-453) (human) (UniProt P00533); experiment: flow cytometry on HT29 cells, MFI titration fitted in GraphPad Prism

Row | Kd [1] | Kd [2] | Substance
1 | 14.4 nM | 0.65 nM | EGFR×CD3 MSBODY M1003 (monovalent unit from Vectibix, single-chain unit anti-CD3 L2K ScFv-Fc) (bispecific antibody)
2 | 8.73 nM | 0.65 nM | EGFR×CD3 MSBODY M1001 (monovalent unit from Erbitux, single-chain unit anti-CD3 L2K ScFv-Fc) (bispecific antibody)
